The record followed here is the Immune Epitope Database (IEDB).

Assay [1] addresses HLA-A*02:11. The experiment in a line: IEDB peptide-MHC binding, purified MHC/direct/fluorescence; filed as Kd, often an IC50 or EC50 that approximates it; ≥ and ≤ were set here for values at or beyond the usual limits of such assays.
Assay [2] deals with HLA-A*69:01. Described as above.
The target in assay [3] is HLA-A*02:03. The description is as above.
The target of assay [4] is HLA-A*02:12. Described as above.
In assay [5] the target is HLA-B*58:01. The experiment in a line: IEDB peptide-MHC binding, purified MHC/competitive/radioactivity; filed as Kd, often an IC50 or EC50 that approximates it; ≥ and ≤ were set here for values at or beyond the usual limits of such assays.
Assay [6] has as its target HLA-A*32:01. The description is as above. The following applies: source organism: Dengue virus 3 Martinique/1243/1999.
Assay [7] addresses HLA-B*57:01. The assay is described as above.
Assay [8] deals with HLA-B*15:42. Briefly: IEDB peptide-MHC binding, purified MHC/competitive/fluorescence; filed as Kd, often an IC50 or EC50 that approximates it; ≥ and ≤ were set here for values at or beyond the usual limits of such assays.
Assay [9] has as its target HLA-B*45:06. The assay is described as above.
Assay [10] deals with HLA-B*83:01. Described as above.
Assay [11] has as its target HLA-B*18:01. Briefly: IEDB peptide-MHC binding, purified MHC/direct/fluorescence; filed as Kd, often an IC50 or EC50 that approximates it; ≥ and ≤ were set here for values at or beyond the usual limits of such assays. The following applies: source organism: Yellow fever virus 1899/81.
The target of assay [12] is HLA-B*08:02. Described as above.
For assay [13], the target named is HLA-B*27:03. The experiment in a line: IEDB peptide-MHC binding, purified MHC/competitive/fluorescence; filed as Kd, often an IC50 or EC50 that approximates it; ≥ and ≤ were set here for values at or beyond the usual limits of such assays. The note with it: source organism: Orthohantavirus tulaense.
Assay [14] deals with HLA-B*39:01. The description is as above. The following applies: source organism: Orthohantavirus tulaense.
The target in assay [15] is HLA-B*15:01. The description is as above. The following applies: source organism: Orthohantavirus tulaense.
In assay [16] the target is HLA-B*57:01. The description is as above. The following applies: source organism: Orthohantavirus tulaense.
The target of assay [17] is HLA-A*31:01. The assay is described as above.
Assay [18] deals with HLA-A*03:01. Described as above. The note with it: source organism: Orthohantavirus tulaense.
Assay [19] addresses HLA-A*26:01. The description is as above. The note with it: source organism: Orthohantavirus tulaense.
For assay [20], the target named is HLA-A*69:01. Described as above. The following applies: source organism: Orthohantavirus tulaense.
For assay [21], the target named is HLA-B*51:01. The description is as above. The note with it: source organism: Orthohantavirus tulaense.
In assay [22] the target is HLA-B*18:01. Described as above. The note with it: source organism: Orthohantavirus tulaense.
Assay [23] has as its target HLA-B*46:01. The description is as above. The note with it: source organism: Orthohantavirus tulaense.
For assay [24], the target named is HLA-A*02:19. The experiment in a line: IEDB peptide-MHC binding, purified MHC/direct/fluorescence; filed as Kd, often an IC50 or EC50 that approximates it; ≥ and ≤ were set here for values at or beyond the usual limits of such assays.
Assay [25] deals with HLA-A*68:02. Described as above. The note with it: source organism: Orthohantavirus tulaense.
The target in assay [26] is HLA-A*02:16. Described as above. The following applies: source organism: Orthohantavirus tulaense.
For assay [27], the target named is HLA-A*24:03. The assay is described as above. The following applies: source organism: Orthohantavirus tulaense.
In assay [28] the target is HLA-B*07:02. Briefly: IEDB peptide-MHC binding, purified MHC/competitive/fluorescence; ≥ and ≤ were set here for values at or beyond the usual limits of such assays.
Assay [29] has as its target HLA-B*53:01. Briefly: IEDB peptide-MHC binding, purified MHC/competitive/radioactivity; filed as Kd, often an IC50 or EC50 that approximates it; ≥ and ≤ were set here for values at or beyond the usual limits of such assays.
Assay [30] concerns the target HLA-A*11:01. The experiment in a line: IEDB peptide-MHC binding, purified MHC/direct/fluorescence; filed as Kd, often an IC50 or EC50 that approximates it; ≥ and ≤ were set here for values at or beyond the usual limits of such assays. The following applies: source organism: Mammarenavirus lassaense.
The target in assay [31] is HLA-A*03:01. Described as above. The note with it: source organism: Mammarenavirus lassaense.
The target in assay [32] is HLA-B*15:01. The assay is described as above. The note with it: source organism: Campylobacter jejuni.
Assay [33] deals with HLA-B*08:01. Described as above. The following applies: source organism: Mycobacterium tuberculosis str. Haarlem.
Assay [34] concerns the target HLA-A*02:17. The experiment in a line: IEDB peptide-MHC binding, purified MHC/competitive/radioactivity; filed as Kd, often an IC50 or EC50 that approximates it; ≥ and ≤ were set here for values at or beyond the usual limits of such assays. The note with it: source organism: Dengue virus 1 Singapore/S275/1990.
The target in assay [35] is HLA-A*02:03. The description is as above. The note with it: source organism: Dengue virus 1 Brazil/97-11/1997.
Assay [36] deals with HLA-B*08:01. The experiment in a line: IEDB peptide-MHC binding, purified MHC/competitive/fluorescence; ≥ and ≤ were set here for values at or beyond the usual limits of such assays.
The target in assay [37] is HLA-A*24:02. The experiment in a line: IEDB peptide-MHC binding, purified MHC/competitive/radioactivity; filed as Kd, often an IC50 or EC50 that approximates it; ≥ and ≤ were set here for values at or beyond the usual limits of such assays. The following applies: source organism: Dengue virus 4 Philippines/H241/1956.
Assay [38] has as its target HLA-A*24:02. The experiment in a line: IEDB peptide-MHC binding, purified MHC/competitive/fluorescence; ≥ and ≤ were set here for values at or beyond the usual limits of such assays. The following applies: source organism: Variola virus.
Assay [39] has as its target HLA-A*02:01. The description is as above. The following applies: source organism: Variola virus.
Setting [40] is: source organism: Mycobacterium tuberculosis str. Haarlem.
The mark [41] stands for this setting: source organism: Dengue virus 3 Martinique/1243/1999.
[42] abbreviates: source organism: Dengue virus 4 Dominica/814669/1981.
[43] abbreviates: source organism: Dengue virus 2 Jamaica/1409/1983.
The mark [44] stands for this setting: source organism: Yellow fever virus 1899/81.
Setting [45] is: source organism: Dengue virus 3 Singapore/8120/1995.
Setting [46] is: source organism: Orthohantavirus tulaense.
Setting [47] is: source organism: Dengue virus 4 Philippines/H241/1956.
[48] abbreviates: source organism: Mopeia Lassa virus reassortant 29.
The mark [49] stands for this setting: source organism: dengue virus type 3.
[50] abbreviates: source organism: Zaire ebolavirus.

The Kd is a measure of binding affinity in units of concentration. For ALFPIIWAL, the Kd is no more than 0.001 µM in assay [1] (setting [40]), 0.536 µM in assay [2] (source organism: Mycobacterium tuberculosis), 0.003 µM in [3] (setting [40]) and 0.004 µM in assay [4] (setting [40]).
Take ATGPITTLW: the values for the dissociation constant Kd in [5] (setting [41]), in assay [6] and in assay [7] (setting [41]) were 0.00489 µM, 0.221 µM and 0.0121 µM, respectively.
Take GSSIGKMFES: the values for the Kd in [5] (setting [42]) and in assay [7] (setting [42]) were 0.251 µM and 1.83 µM, respectively.
With GSSIGQMFET, the figures for the Kd in [5] (setting [43]) and in assay [7] (setting [43]) were 1.51 µM and 1.08 µM, respectively.
For HEVNGTWMI, the dissociation constant (Kd) in assay [8] (setting [44]) is no less than 5 µM; in assay [9] (setting [44]), no less than 5 µM; in assay [10] (setting [44]), no less than 5 µM; in [11], 0.009 µM.
For the sequence HSSTWHYDDE, the Kd in [5] (setting [45]) was determined as 0.866 µM; in assay [7] (setting [45]) it was 6.58 µM.
ILKERKQAL yielded a Kd in assay [12] (source organism: Listeria monocytogenes serotype 4b str. H7858) of 1.62 µM.
On to ILMARYMSK, for which the Kd in assay [8] (setting [46]) is no less than 5 µM; in assay [13] it was no less than 20 µM; in assay [14], no less than 20 µM; in assay [15], no less than 20 µM; in assay [9] (setting [46]), no less than 5 µM; in assay [16], no less than 20 µM. Moreover, the Kd in assay [17] (setting [46]) is 0.0152 µM; in [18] it was 0.0628 µM; in assay [19], no less than 20 µM; in assay [20] it was no less than 20 µM; in assay [21] it was no less than 20 µM; in [22], no less than 20 µM. Besides, the Kd in [23] was no less than 20 µM; in assay [10] (setting [46]), no less than 5 µM; in assay [24] (setting [46]), no less than 20 µM; in [25], no less than 20 µM; in [26], no less than 20 µM; in assay [1] (setting [46]), no less than 20 µM. The Kd in assay [27], in assay [3] (setting [46]) and in assay [4] (setting [46]) was no less than 20 µM each time.
One may read the IC50 as the concentration that inhibits the measured activity by half. Low values mean higher potency, high ones lower potency. In turn, INKLNGAMV gave an IC50 in assay [28] (source organism: Vaccinia virus Copenhagen) of no less than 74.2 µM.
For the sequence MKITAEWLW, the Kd was 0.00543 µM in [5] (setting [43]), 0.0433 µM in [7] (setting [43]) and 1.09 µM in assay [29] (setting [43]).
As for PSSVAARGYI, the Kd came to 0.512 µM in assay [5] (setting [47]) and 16.4 µM in assay [7] (setting [47]).
Take RLKFSLSYK: the dissociation constant Kd in assay [8] (setting [48]) is no less than 5 µM; in assay [9] (setting [48]), no less than 5 µM; in assay [17] (setting [48]), 0.00717 µM; in assay [10] (setting [48]), no less than 5 µM; in assay [30], 0.0597 µM; in assay [31] it was 0.0484 µM.
Regarding SLNLAKEAV, the results for the Kd in assay [32], in assay [1] (source organism: Campylobacter jejuni subsp. jejuni HB93-13) and in assay [2] (source organism: Campylobacter jejuni) were no less than 34 µM, 0.003 µM and 4.34 µM, respectively.
TLRRRFAVA: the Kd in assay [12] (setting [40]) is no less than 20 µM; in assay [33] it was 0.012 µM.
Turning to TLYAVATTV, the Kd was 0.01 µM in assay [24] (setting [49]); no more than 0.001 µM in assay [1] (setting [49]); 0.005 µM in assay [4] (setting [49]); 1.62 µM in assay [34]; 0.0128 µM in [35].
As for TNQLRSVGL, the IC50 turned out to be 64.3 µM in assay [28] (setting [50]) and 32.9 µM in [36] (setting [50]).
Turning to TSSQQKADW, the Kd in assay [5] (setting [43]) came to 0.186 µM; in assay [7] (setting [43]), 0.0291 µM.
For the sequence VTMTLWYMW, the Kd in assay [5] (setting [47]) came out at 0.00159 µM; in assay [37], 0.0317 µM; in assay [7] (setting [47]), 0.00752 µM; in assay [29] (setting [47]), 2.54 µM.
As to WISHRPVVL, the IC50 is 21.5 µM in assay [38], 7.13 µM in assay [28] (source organism: Variola virus), 1.11 µM in assay [39] and 25.7 µM in [36] (source organism: Variola virus).
